Where a chain is given by its changes, count along the chain named. Numbers in names are those of the source.
B1: Synechococcus sp. PCC 7942 NR (ferredoxin-dependent nitrate reductase) (Synechococcus elongatus PCC 7942 = FACHB-805; K215R) (protein)
chain: MIDTAKTLCPYCGVGCGLEAVPPAQPGRATVRDREGTPIWQIRGDRQHPSSQGMVCVKGATVAESVSKSRLKYPMFRASLDDPFTEISWDEALDRLCDRIQQTQADYGKDGICFYGSGQFQTEDYYIAQKLVKGCLGTNNFDTNSRLCMSSAVSAYSLCLGSDGPPACYEDLDLADCLLIVGSNTAECHPILFNRYRKRHRQGGTNLIVVDPRCTPTAEVADLHLALKPGSDVALLNGLGWLLYQMGYVKKDFIANQTEGFEDWLAIIEDYPPQRTAELTGLAVAELVRAADLIASAQRWLSLWSMGVNQSIQGTAKATSLINLHLLTRQIGLPGCGPFSLTGQPNAMGGRETGGLAHLLPGYRKVIDPQHRADVETIWGLPMGSISPQPGRTAWQMIEGLEQGAVGFLWVAATNPAVSLPDVKRAQAALKRSPFTVLQDAYHPTETTTYAHLLLPAAQWSEKTGTMTNSERRVTLCQAFRQPPGEARADWQIFAEVGRRLGFAFDYTDAAAVFAEYVQVTAGRLCDLSGLSHELLAQAGPQQWPFPAGAEPTTESKRLYTKHHFAYADGRARFQPFHHLGVAEPPDDRYPLVLTVGRLYGHWHTQTRTGRIDKINKLHPSAFVEIHPRDADRYNISEGQAVVIRSRRGEGCFPAKVTTAISPGVLFVPMHWGALWGDRTEANALTHPAACPISGEPELKACAVQIEAASSTFTI
B2: Synechococcus sp. PCC 7942 NR (ferredoxin-dependent nitrate reductase) (Synechococcus elongatus PCC 7942 = FACHB-805; K628R) (protein)
chain: B1 chain with R201K, K614R
B3: Synechococcus sp. PCC 7942 NR (ferredoxin-dependent nitrate reductase) (Synechococcus elongatus PCC 7942 = FACHB-805; R211Q) (protein)
chain: B1 chain with R197Q, R201K
B4: Synechococcus sp. PCC 7942 NR (ferredoxin-dependent nitrate reductase) (Synechococcus elongatus PCC 7942 = FACHB-805; R60Q) (protein)
chain: B1 chain with R46Q, R201K
B5: Synechococcus sp. PCC 7942 NR (ferredoxin-dependent nitrate reductase) (Synechococcus elongatus PCC 7942 = FACHB-805; E233Q) (protein)
chain: B1 chain with R201K, E219Q
B6: Synechococcus sp. PCC 7942 NR (ferredoxin-dependent nitrate reductase) (Synechococcus elongatus PCC 7942 = FACHB-805; R57K) (protein)
chain: B1 chain with R43K, R201K
B7: Synechococcus sp. PCC 7942 NR (ferredoxin-dependent nitrate reductase) (Synechococcus elongatus PCC 7942 = FACHB-805; R60K) (protein)
chain: B1 chain with R46K, R201K

Each protein was assayed on O=[N+]([O-])O (assay: nitrate reduction with reduced Fd, Michaelis-Menten fit). Conditions: saturating reduced Synechocystis sp. PCC 6803 ferredoxin as electron donor.
Type: biochemical, Synechococcus elongatus
B1 was tested, and the Km was 9.6 ± 1.0 µM. In the case of B2, the Km is reported as 4.2 ± 0.5 µM. Work on B3 yielded a Km of 7.0 ± 0.7 µM. In the case of B4, the Km is reported as 55 ± 20 µM. Protein B5 has a Km of 4.5 ± 0.4 µM. For B6, the Km was 8.1 ± 0.7 µM. With B7 the Km was 6.6 ± 1.0 µM.

Reference: publication PMC5645249
